# Molecular target: the molecule itself
# Assay: SEC; cell lysate of 32D BCR-ABL cells on Superdex 200 10/300GL, 50 mM phosphate, 0.15 M NaCl, pH 7.2; fractions by UV absorbance and western blot
protein,measurement,value
"Flag-tagged K270R mutant PKM2 expressed in 32D BCR-ABL cells (enzyme, pyruvate kinase, M2 isoform (PKM2); also called PKM2^K270R; KR; source: 32D BCR-ABL cells, ectopically expressed, in lysate) not shown",stoichiometry N,4
